{"source": "patent US20260028400A1", "about": "(AIMED BIO, published 2026)", "binders": {"B1": {"name": "P015022 scFv (scFv, V domains shown)", "VH": "EVQLLESGGGLVQPGGSLRLSCAASGFTFSNYDMSWVRQAPGKGLEWVSSISSNGGSTYYADSVKGRFTISRDNSKNTLYLQMNSLRAEDTAVYYCAKCLLQFDYWGQGTLVTVSS", "VL": "not shown", "notes": "HA-tagged scFv"}, "B2": {"name": "P015014 scFv (scFv, V domains shown)", "VH": "EVQLLESGGGLVQPGGSLRLSCAVSGFTFSSYSMSWVRQAPGKGLEWVSAISPGDSNKYYADSVKGRFTISRDNSKNTLYLQINSLRAEDTAVYYCARTFPYFDYWGQGTLVTVSS", "VL": "QSVLTQPPSASGTPGERVTISCSSSSSNIGSNYVNWYQQLPGTAPKLLIYDNSQRPSGVPDRFSGSKSGTSASLAISGLRSEDEADYYCGSWDDSLSGYVFGGGTKLTVL", "notes": "HA-tagged scFv"}, "B3": {"name": "P015044 scFv (scFv, V domains shown)", "VH": "EVQLLESGGGLVQPGGSLRLSCAASGFTFSNYAMHWVRQAPGKGLEWVSIIYPDDDTRYNPSFRGRFTISRDNSKNTLYLQMNSLRAEDTAVYYCARDLLYAGDYWGQGTLVTVSS", "VL": "QSVLTQPPSASGTPGQRVTISCGGNNIESKAVHWYQQLPGTAPKLLIYANNKRPSGVPDRFSGSKSGTSASLAISGLRSEDEADYYCQSYDSNKVVFGGGTKLTVL", "notes": "HA-tagged scFv"}, "B4": {"name": "P015028 scFv (scFv, V domains shown)", "VH": "EVQLLESGGGMVQTGGSLRLSCAASGFTFSDYAMSWVRQAPGKGLEWVSAISYDNGNTYYADSVKGRFTISRDNSKNALYLQMNSLRAEDTAVYYCAKVNHRFDYWGQGTLVTVSS", "VL": "B2 VL with E16Q, S24G, Y33T, V34F, D51A, Q54H, G90A, D94A", "notes": "HA-tagged scFv"}, "B5": {"name": "P015042 scFv (scFv, V domains shown)", "VH": "EVQLLESGGGLVQPGGSLRLSCAASGFTFSDYAMSWVRQAPGKGLEWVSVISSDGGSIYYADSVKGRFTISRDNSKNTLYLQMNSLRAEDTAVYYCAKDRSRDMEVDFDYWGQGTLVTVSS", "VL": "B2 VL with E16Q, S24G, N35T, N52S, S91T, D94Y", "notes": "HA-tagged scFv"}, "B6": {"name": "P015039 scFv (scFv, V domains shown)", "VH": "EVQLLESGGGLVQPGGSLRLSCAASGFTFSDYAMSWVRQAPGKGLEWVSWISPGGGNTYYADSVKGRFTISRDNSKNTLYLQMNSLRAEDTAVYYCAKGALMCLSATCSSDYGMDVWGQGTLVTVSS", "VL": "QSVLTQPPSASGTPGQRVTISCTGSSSNIGNNAVSWYQQLPGTAPKLLIYSDNQRPSGVPDRFSGSKSGTSASLAISGLRSEDEADYYCGTWDYSLNGYVFGGGTKLTVL", "notes": "HA-tagged scFv"}, "B7": {"name": "P015024 scFv (scFv, V domains shown)", "VH": "EVQLLESGGGLVQPGGSLRLSCAASGFTFSDYYMSWVRQAPGKGLEWVSLISPGSDSKYYADSVKGRFTISRDNSKNTLYLQMNSLRAEDTAVYYCAKIEPDFDYWGQGTLVTVSS", "VL": "QSVLTQPPSASGTPGQRVTISCSGSSSNIGSNTFNWYQQLPGTAPKLLIYADSHRPSGVPDRFSGSKSGTSASLAISGLRSEDEADYYCATWDYSLSAYVFGGGTKLTVL", "notes": "HA-tagged scFv"}, "B8": {"name": "P015020 scFv (scFv, V domains shown)", "VH": "B1 VH with N31G, D33Y, S50V, S53H, N54D, G56S, C99V, L100K, L101Y, Q102I", "VL": "B7 VL with S23T, S31N, F34V, H54N, A90D, Y94S, S97N", "notes": "HA-tagged scFv"}, "B9": {"name": "P015023 scFv (scFv, V domains shown)", "VH": "EVQLLESGGGLVQPGGSLRLSCAASGFTFSGYDMSWVRQAPGKGLEWVSGISHDGRSKYYADSVKGRFTVSRDNSKNTLYLQMNSLRAEDTAVYYCAKDVPFKMRFIFDYWGQGTLVTVSS", "VL": "B7 VL with I20L, S23T, F34V, N35Y, H54Q, A90G, T91S, Y94S, S97N", "notes": "HA-tagged scFv"}, "B10": {"name": "P015012 scFv (scFv, V domains shown)", "VH": "EVQLLESGGGLVQPGGSLRLSCAASGFTFSGYSMSWVRQAPGKGLEWVSGISYGGSSISYADSVKGRFTISRDNSKNTLYLQMNSLRAEDTAVYYCAKPVRRWARFRLSYDDAMDVWGQGTLVTVSS", "VL": "B7 VL with S31N, T33A, F34V, D52N, A90G, Y94S, A98G", "notes": "HA-tagged scFv"}, "B11": {"name": "P015021 scFv (scFv, V domains shown)", "VH": "EVQLLESGGGLVQPGGSLRLSCAASGFTFSSYAMSWVRQAPGKGLEWVSWISPGGGNIYYADSVKGRFTISRDNSKNTLYLQMNSLRAEDTAVYYCARSQSGFDYWGQGTLVTVSS", "VL": "B6 VL with T23S, A33S, S35T, S51Y, N53S, Q54H, T91A, Y94S", "notes": "HA-tagged scFv"}, "B12": {"name": "P015006 scFv (scFv, V domains shown)", "VH": "EVQLLESGGGLVQPGGSLRLSCAASGFTFSNYSMSWVRQAPGKGLEWVSAISHGSGSIYYADSVKGRFTISRDNSKNTLYLQMNSLRAEDTAVYYCAKPISAWSHIRMSYAYGMDVWGQGTLVTVSS", "VL": "B7 VL with S23T, T33Y, F34V, N35S, Q38R, A51S, H54N, Y94A", "notes": "HA-tagged scFv"}, "B13": {"name": "P015003 scFv (scFv, V domains shown)", "VH": "EVQLLESGGGLVQPGGSLRLSCAASGFTFSSYAMSWVRQAPGKGLEWVSGISPGGSSKYYADSVKGRFTISRDNSKNTLYLQMNSLRAEDTAVYYCARGPHRAIDTAFDYWGQGTLVTVSS", "VL": "B7 VL with S23T, T33Y, F34V, N35S, Q38R, A51S, H54N, Y94A", "notes": "HA-tagged scFv"}, "B14": {"name": "P015043 scFv (scFv, V domains shown)", "VH": "B1 VH with S50W, S53P, N54G, G56S, T58I, C99T, L101T, Q102R", "VL": "B6 VL with A33N, S51Y, N53S, Q54H, Y94S, N97S", "notes": "HA-tagged scFv"}, "B15": {"name": "P015009 scFv (scFv, V domains shown)", "VH": "EVQLLESGGGLVQPGGSLRLSCAASGFTFSNYSMSWVRQAPGKGLEWVSGIYSGNSNTYYADSVKGRFTISRDNSKNTLYLQMNSLRAEDTAVYYCAKDSRATHHRWHYYDNAMDVWGQGTLVTVSS", "VL": "B6 VL with N31S, A33Y, Q38R, N53S, Q54N, Y94S, N97S", "notes": "HA-tagged scFv"}, "B16": {"name": "P015002 scFv (scFv, V domains shown)", "VH": "EVQLLESGGGLVQPGGSLRLSCAASGFTFSDYSMSWVRQAPGKGLEWVSGISHNGGSTYYADSVKGRFTISRDNSKNTLYLQMSSLRAEDTAVYYCARDVSRWSKTRWSYDNAMDVWGQGTLVTVSS", "VL": "B7 VL with S23T, T33Y, F34V, N35S, Q38R, A51S, H54N, Y94A", "notes": "HA-tagged scFv"}, "B17": {"name": "P015013 scFv (scFv, V domains shown)", "VH": "EVQLLESGGGLVQPGGSLRLSCAASGFTFSSYDMSWVRQVPGKGLEWVSWISHGGGSIYYADSVKGRFTISRDNSKNTLYLQMNSLRAEDTAVYYCARDLSNRLFTGFDYWGQGTLVAVSS", "VL": "B7 VL with T33S, F34V, N35Y, L47P, A51S, A90G, S97N", "notes": "HA-tagged scFv"}, "B18": {"name": "P015010 scFv (scFv, V domains shown)", "VH": "EVQLLESGGGLVQPGGSLRLSCAASGFTFSNYAMSWVRQAPGKGLEWVSGISPNGSSIYYADSVKGRFTISRDNSKNTLYLQMNSLRAEDTAVYYCAKAARLSPSRNYSYAYGMDVWGQGTLVTVSS", "VL": "B6 VL with A33N, S35T, N53S", "notes": "HA-tagged scFv"}, "B19": {"name": "P015041 scFv (scFv, V domains shown)", "VH": "B18 VH", "VL": "B6 VL with A33N, S35T, N53S, D93E", "notes": "HA-tagged scFv"}, "B20": {"name": "P015038 scFv (scFv, V domains shown)", "VH": "B18 VH with L5Q, Q13L, S30N", "VL": "B6 VL with A33N, S35T, N53S", "notes": "HA-tagged scFv"}, "B21": {"name": "P015040 scFv (scFv, V domains shown)", "VH": "B18 VH", "VL": "B6 VL with A33N, S35T, N53S, E82K", "notes": "HA-tagged scFv"}, "B22": {"name": "P015005 scFv (scFv, V domains shown)", "VH": "B16 VH", "VL": "B7 VL with T33Y, F34V, A51S, A90G, T91S, Y94S, S97N, F101L", "notes": "HA-tagged scFv"}, "B23": {"name": "P015011 scFv (scFv, V domains shown)", "VH": "B18 VH with N54D, S56G, R106M", "VL": "B6 VL with A33Y, N53S, Q54H", "notes": "HA-tagged scFv"}, "B24": {"name": "P015001 scFv (scFv, V domains shown)", "VH": "EVQLLESGGGLAQPGGSLRLSCAASGFTFSNYDMSWVRQAPGKGPEWVSGIYSGNSNTYYADSVKGRFTISRDNSKNTLYLQMNSLRAEDTAVYYCARDLQYTEWAGFDYWGQGTLVTVSS", "VL": "B2 VL with E16Q, S24G, Y33D, N35T, N52D, Q54K, G90A, S91A", "notes": "scFv of a phage-library clone from a bacterial extract, with HA tag"}}, "note": "Positions count from the first letter of the chain named."}
{"target": "T1, FZD+KRD (human, UniProt Q01973)", "T1 construct": "frizzled plus kringle domains, His tag; also called FK domain; human ROR1-frizzled-kringle domain", "T1 sequence (Q01973 165-395 limits assumed)": "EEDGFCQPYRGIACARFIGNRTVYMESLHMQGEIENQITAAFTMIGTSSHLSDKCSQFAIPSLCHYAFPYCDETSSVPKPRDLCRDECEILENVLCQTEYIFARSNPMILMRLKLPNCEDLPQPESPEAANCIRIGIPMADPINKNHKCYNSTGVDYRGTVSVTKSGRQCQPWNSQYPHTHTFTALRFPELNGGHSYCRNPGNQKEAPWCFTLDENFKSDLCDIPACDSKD", "experiment": "scFv ELISA on coated domain, anti-HA-HRP, OD450", "method": "(§1) Thereafter, the plate was treated with each scFv and reacted for 2 hours, followed by washing four times using PBST and distilled water. After binding at room temperature for 1 hour using an HRP-conjugated anti-HA antibody (Roche, 12013819001, Anti-HA-Peroxidase, High Affinity) capable of binding to the HA tag, washing was performed six times using PBST and distilled water. After color development by adding TMB substrate solution (Thermo Scientific, 34029, 1-Step™ Ultra TMB-ELISA Substrate Solution), the color reaction was stopped with stop solution (Invitrogen, SS04, ELISA Stop Solution), and the absorbance was measured at OD 450 nm. The scFv binding to each domain was analyzed through ELISA."}
{"binder": "B1", "binding result": "no binding"}
{"binder": "B2", "binding result": "no binding"}
{"binder": "B3", "binding result": "no binding"}
{"binder": "B4", "binding result": "no binding"}
{"binder": "B5", "binding result": "no binding"}
{"binder": "B6", "binding result": "no binding"}
{"binder": "B7", "binding result": "no binding"}
{"binder": "B8", "binding result": "no binding"}
{"binder": "B9", "binding result": "no binding"}
{"target": "T2, Ig-like (human, UniProt Q01973)", "T2 construct": "Ig-like domain, His tag; also called Ig-like domain; human ROR1-immunoglobulin domain", "T2 sequence (Q01973 39-151 limits assumed)": "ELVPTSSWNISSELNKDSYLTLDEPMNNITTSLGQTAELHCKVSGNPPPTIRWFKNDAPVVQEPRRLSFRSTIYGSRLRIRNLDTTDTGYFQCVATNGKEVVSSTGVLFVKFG", "experiment": "scFv ELISA on coated domain, anti-HA-HRP, OD450", "method": "as §1"}
{"binder": "B10", "binding result": "no binding"}
{"binder": "B11", "binding result": "no binding"}
{"binder": "B12", "binding result": "no binding"}
{"binder": "B13", "binding result": "no binding"}
{"binder": "B14", "binding result": "no binding"}
{"binder": "B6", "binding result": "binds"}
{"binder": "B15", "binding result": "no binding"}
{"binder": "B16", "binding result": "no binding"}
{"binder": "B17", "binding result": "no binding"}
{"binder": "B18", "binding result": "binds"}
{"binder": "B19", "binding result": "binds"}
{"binder": "B20", "binding result": "binds"}
{"binder": "B21", "binding result": "binds"}
{"binder": "B22", "binding result": "no binding"}
{"target": "T3, FZD (human, UniProt Q01973)", "T3 construct": "frizzled domain, His tag; also called Frizzled domain; human ROR1-frizzled domain", "T3 sequence (Q01973 165-305 limits assumed)": "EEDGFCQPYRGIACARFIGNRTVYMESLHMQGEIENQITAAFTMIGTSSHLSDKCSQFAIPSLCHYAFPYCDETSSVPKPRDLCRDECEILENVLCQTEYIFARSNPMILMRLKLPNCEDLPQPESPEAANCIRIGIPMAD", "experiment": "scFv ELISA on coated domain, anti-HA-HRP, OD450", "method": "as §1"}
{"binder": "B1", "binding result": "no binding"}
{"binder": "B3", "binding result": "no binding"}
{"binder": "B12", "binding result": "binds"}
{"binder": "B4", "binding result": "no binding"}
{"binder": "B23", "binding result": "no binding"}
{"binder": "B5", "binding result": "no binding"}
{"binder": "B7", "binding result": "no binding"}
{"binder": "B8", "binding result": "no binding"}
{"binder": "B24", "binding result": "no binding"}
{"binder": "B15", "binding result": "binds"}
{"binder": "B9", "binding result": "no binding"}
{"binder": "B17", "binding result": "binds"}
